According to patent US20220226381A1:
Like-named read-outs stand apart in the source and are kept apart here.

Legend:
[1] = molecular target: CD19 on CD19+ Raji B cells (UniProt P15391); test: cell-based or functional assay
[2] = molecular target: CD19 on CD19+ Raji B cells (UniProt P15391); test: cell-based or functional assay; remark: listed apart in the source

UniProt P15391, sequence (P15391 20-556 limits assumed): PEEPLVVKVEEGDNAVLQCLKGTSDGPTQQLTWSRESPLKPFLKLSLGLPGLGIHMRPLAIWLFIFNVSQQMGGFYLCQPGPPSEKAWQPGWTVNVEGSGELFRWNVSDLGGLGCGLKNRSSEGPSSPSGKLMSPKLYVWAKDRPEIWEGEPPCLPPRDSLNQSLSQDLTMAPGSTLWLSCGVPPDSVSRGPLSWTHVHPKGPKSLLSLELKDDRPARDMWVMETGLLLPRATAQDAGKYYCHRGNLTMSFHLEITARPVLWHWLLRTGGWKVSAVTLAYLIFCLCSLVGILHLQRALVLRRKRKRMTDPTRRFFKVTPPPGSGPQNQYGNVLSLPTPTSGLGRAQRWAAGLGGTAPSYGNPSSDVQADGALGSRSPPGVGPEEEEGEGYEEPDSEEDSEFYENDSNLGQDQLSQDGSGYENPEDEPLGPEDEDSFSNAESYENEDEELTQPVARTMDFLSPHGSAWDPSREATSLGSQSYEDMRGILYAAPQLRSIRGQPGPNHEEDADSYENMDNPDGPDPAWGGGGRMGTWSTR

change in activated cells in the population (CD25 and CD69 staining, flow cytometry, 24 h co-culture) [1]: 3.9 to 12.1% | change in activated cells in the population (CD25 and CD69 staining, flow cytometry, 24 h co-culture) [2]: 0.9 to 84.8%
Substance: anti-CD19 CAR (anti-CD19 CAR cassette as described in WO 2012/079000), expressed on transduced CD4+ T-cells
